Paper PMC4989506

Key:
[1] = biological target: C3b (human) (UniProt P01024); assay: SPR
[2] = biological target: recombinant albicin (Anopheles albimanus complement inhibitor) (Anopheles albimanus); assay: SPR
Sequence of recombinant albicin (Anopheles albimanus complement inhibitor) (Anopheles albimanus) (A0A1Y9G8D0 27-142, tags left off): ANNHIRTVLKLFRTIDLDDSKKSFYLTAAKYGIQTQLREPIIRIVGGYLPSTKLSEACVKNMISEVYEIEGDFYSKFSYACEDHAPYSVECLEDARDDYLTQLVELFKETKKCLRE

Sequence of properdin (P27918 28-469): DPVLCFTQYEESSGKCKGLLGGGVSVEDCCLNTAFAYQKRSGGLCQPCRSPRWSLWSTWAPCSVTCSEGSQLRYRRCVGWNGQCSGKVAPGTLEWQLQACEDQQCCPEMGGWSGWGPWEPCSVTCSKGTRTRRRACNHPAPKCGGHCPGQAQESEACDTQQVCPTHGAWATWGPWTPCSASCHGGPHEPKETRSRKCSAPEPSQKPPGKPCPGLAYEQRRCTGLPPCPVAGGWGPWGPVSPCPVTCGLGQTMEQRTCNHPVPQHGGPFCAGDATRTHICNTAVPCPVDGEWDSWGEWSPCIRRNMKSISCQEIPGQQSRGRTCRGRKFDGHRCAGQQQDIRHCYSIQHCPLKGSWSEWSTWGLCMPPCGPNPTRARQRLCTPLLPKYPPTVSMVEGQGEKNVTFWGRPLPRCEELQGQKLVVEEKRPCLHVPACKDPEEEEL

properdin (from UniProt P27918 28-469) (natural protein)
response of properdin coated on the C3b surface [1]: 1200 RU
K1/2 (concentration at half-saturation) [2]: 11.6 nM
